This data set can be described thus: yeast display, Sf9 membrane polyspecificity reagent, FACS + sequencing; frameworks hold sequencing errors. The method, boiled down: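 After 36–48 hours of galactose induction, yeast (Saccharomyces cerevisiae BJ5465) displaying a synthetic nanobody library were stained at 4 °C for 1 hour with 10% biotinylated, detergent-solubilized Sf9 membrane reagent. Streptavidin microbeads enriched the stained cells before FACS sorting into low and high (top ~1%) gates on anti-HA and streptavidin fluorescence. Each clone's polyreactivity label reflects its gate of origin.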
With “QVQLLESGGGLVQAGGSLRLSCAASGRTFRYYTMGWYRQAPGKEREFVDAISSTGGTYYADSVKGRFTISRDNAKNTVYLQMNCLKPEDTAVYYCAATFIQVVVNVQLYDYDYWGQGTQVTVSS”, the “polyreactivity (PSR sort gate)” value is “low polyreactivity”. For the sequence “QVQLLESGGGLVQAGGSLRLSCAASGRTFTGYVMGWYRQATGKERELVAGISRRGGRTYYADSVKGRFTISRDNAKNTVYLQMNSLKPEDTAVYYCAAAVTSSDPYDYWGQGTQVTVSS”, the “polyreactivity (PSR sort gate)” value is on record as “high polyreactivity”. As for “QVQLLESGGGLVQAGGSLRLSCAASGRTFTSNVMGWYRQAPGKERELVAAISSSGGRTYYADSVKGRFTISRDNAKNTVYLLMNSLKPEDTAVYSCAADGYPEYPRYGYWGQGTQVTVSS”, the “polyreactivity (PSR sort gate)” value was “high polyreactivity”. Consider “QVQLLESGGGLVQAGGSLRLSCAASGSIFDGYGMGWYRQAPGKERELVAGITSGGSTYYADSVKGRFTISRDTAKNTVYLQMNSLKPEDTAVYYCATVVRYSNARGDYWGQGTQVTVSS”, for which the “polyreactivity (PSR sort gate)” value was “low polyreactivity”. Take “QVQLLESGGGLVQAGGSLRLSCAASGSIFYPYAMGWHRQAPGKERELVAAISYSGGSTYYADSVKGSFTISRDNAKNTVYLQMNSLKPEDSAVYYCAASVFRGSATYDSWGQGTHVTVSS”: the “polyreactivity (PSR sort gate)” value was “high polyreactivity”. With “QVQLLESGGGLVQAGGSLRLSCAASGSNFSSYAMGWSRQAPGTERELVASISRRGGSTYYADSVKGRFTISRDNAKNTVYLQMNSLKPEDTAVYYCNASGGPYRYYYWGQGTQVTVSS”, the “polyreactivity (PSR sort gate)” value was “low polyreactivity”.

“QVQLLESGGGLVQAGGSLRLSCAASGSTFSYNAMGWYIQAPGKERELVAAIDRSVSTNYADSVKGRFTISRDNAKNTVYLQMNSLKPEDTEVYYCNARHPTDDIVIYDYWGQGTQVTVSS”: the “polyreactivity (PSR sort gate)” value is “low polyreactivity”. With “QVQLLESGGGLVQAGGSLRLSCAASGSTFTNYAMGWYRQAPGKERELVAAITSGGSTYYADSVKGRCTISRDNAKNTVYLQMNSLKPEDTAVYYCNAVYFSEYDSWGQGTLVTVSS”, the “polyreactivity (PSR sort gate)” value was “low polyreactivity”. In the case of “QVQLLESGGGLVQAGGSLRLSCAASGSTYSRYDMGWYRPAPGKERELVAAISRSGGSTYYADSVKGRFTISRDNAKNTVYLQMNSLKPEDTAGYYCAAYLPYRQGRYGYEYWGQGTQVNVSS”, the “polyreactivity (PSR sort gate)” value is “high polyreactivity”. As for “QVQLLESGGGLVQAGGSLRLSCAASRRIIYGYAMGWYRQAPGKERELVAAITATYYADSVKGRFTISRDNPKNTVYLLMNSLKAVDTAVYYCNAYLSPKQPLSPQDPTFEGGYWGQCTQVTVSS”, the “polyreactivity (PSR sort gate)” value is on record as “low polyreactivity”. Turning to “QVQLLESGGGLVQAGGSLRLSCASSGFTFGWYAMGWYRPAPGKERDLVAAISYSGGSTYYADSVKGRFTISRDNAKNTVYLQMNSLKPEDTAVYYCAAKARRPYSYHPYDYWGQGTQVTVSS”, the “polyreactivity (PSR sort gate)” value is recorded as “high polyreactivity”. For the sequence “QVQLLESGGGLVQAGGSLRLSCASSGYTIIQYAMGWYRQAPGKERELVAGNTWSGGSTYADSVKGRFTISRDNAKNTVYLQMKSLKQEDTAVYYCAADQEPGKYRFPYARKNNYWGQGTQVTVSS”, the “polyreactivity (PSR sort gate)” value is listed as “low polyreactivity”. As for “QVQLLESGGGLVQAGGSLRLSCDASGSISYHNAMGWYRQAPGKERELVASITSGSSTYYADSVKGSFTISRDNAKNTVYLQMNSLKPEDTAVYYCAAQDYSPYERGRDYWGQGTQVTVSS”, the “polyreactivity (PSR sort gate)” value is given as “low polyreactivity”.

Regarding “QVQLLESGGGLVQAGGSLRLSCPASGRIFGSYAMRSYRKAPGKERDFVAAISRTGGSTYYADSVKGRFTISRDNAKNTVYLQFTSLKPEDTAVYYCAASYRWRFVRGYYWGQGTQVNVSS”, the “polyreactivity (PSR sort gate)” value is given as “high polyreactivity”. Turning to “QVQLLESGGGLVQAGGSLRLSCVASGGILSSNAMGWYRQAPGKERELVAAISSGGSTNYADSVKGRFTISRDNAKNTVYLQMNSLKPDDTAVYYCAADSKIGSFDSWGQGTQVNVSS”, the “polyreactivity (PSR sort gate)” value was “low polyreactivity”. Consider “QVQLLESGGGLVQAGGSLRLTCAASGRIFAYYAMAWYRQAPGKERELVAAITSGGSTYYADSVKGRFTISRDNAKNTVYLQMNILKPEDTAVYYCNAGYGQWSRGHWRLSSVPYYYWGQGTQVTVSS”, for which the “polyreactivity (PSR sort gate)” value is “high polyreactivity”. For “QVQLLESGGGLVQAGGSLRLTCAASGSIFFYYAMAWYRQAPGKEMEFVAGITYSGGITYYADSVKGRFTISRDNEKNTVYLQMNSLKPEDTAVYYCDYGGGVYQYGYWGQGTLVTVSS”, the “polyreactivity (PSR sort gate)” value is reported as “low polyreactivity”. Turning to “QVQLLESGGGLVQAGGSLRLTCAASGSIFVIYAMGWYRQAPGKVRELVAAIDSSDGSTYYADSVKGRFTISRDNAKNTVYLQMNSLKPEDTAVYYCAARRLYWGQGTQVTVSS”, the “polyreactivity (PSR sort gate)” value was “high polyreactivity”. As to “QVQLLESGGGLVQAGGSLRLTSPASVRISQIYAMGWYIQAPGTERVLVARITSTDSTYYADSVKGRFTISRDNAKNTVYLQMNSLKPEDTAVYYCAASWWSPYDYWGQGTQVTVSS”, the “polyreactivity (PSR sort gate)” value is on record as “low polyreactivity”. On to “QVQLLESGGGLVQAGGSLSLSCMASGSILGDRMSWYRQAPGKEHELVATIYDGGITYYADSMKGRFTISRDNAKNTVYLQMNSLRPEDTAVYYCGASFEGYRYHVYCGQGTQVTVSS”, for which the “polyreactivity (PSR sort gate)” value is on record as “low polyreactivity”. “QVQLLESGGGLVQAGRSLRLSCAASGNTFDEYVKGWYRQAPGKESELDASIDWSGGGTYYADSVKGRFTISRDNAKNTVYLQMNSLKPEDTAVFYCNADYFDYSRTRYDYWGQGTQVNVSS”: the “polyreactivity (PSR sort gate)” value is recorded as “low polyreactivity”. With “QVQLLESGGGLVQAGRSLRLSCAASGRIFRYYAMGWYRQAPGKERELVAAISYSTGGTSTYADSVKGRFTISRDNAKTTVYLQMNSLKPEDTAVYYCAVRRQYRRAYSFSQSRYDYWGQGTQVTVSS”, the “polyreactivity (PSR sort gate)” value is listed as “high polyreactivity”. As for “QVQLLESGGGLVQPGGILRLSCAASGSTFVRYAMGWYRQAPGKERELVAAISYRGGSTYYADSVKGLFTISRDNANNSVYLELYSLKPEDTAVYYCAAESRHVEGEYWGQGTQVTVSS”, the “polyreactivity (PSR sort gate)” value was “high polyreactivity”. On to “QVQLLESGGGLVQPGGSLRLSCAASGSIFDGYAMVWYRQAPGKERELVAAISSSGGSTYYADSVKGRYTISRDTAKNTVYLQMNSLQREDSAVYYCAARFPWRGGVKYSYYFQHDYWGQGTQVTVSS”, for which the “polyreactivity (PSR sort gate)” value is on record as “high polyreactivity”. As to “QVQLLESGGGLVQSGGSLRLTCAASGFTFRGYAMGWYRQAPGKERELVAAISWNGGRTYADSVKGRFTITRDNAKYTVYLQMNSLKPEDTAVYYCNAVKFGATAYDYWGQGTQVTVSS”, the “polyreactivity (PSR sort gate)” value is on record as “high polyreactivity”. “QVQLLESGGRLVQAGRSLRLSCAASGRTFGPYAMGWYRQAPGKEREFVAAISSRGGRTYYADSVKGRFTISRDNAKNTVYLQLNSLKPEDTAVYYCAAEYNYSNKYLYLFLQMDYWGQGSQVTVSS”: the “polyreactivity (PSR sort gate)” value is “low polyreactivity”. As for “QVQLLESGVGLVQAGGSLRLSCAASGFSFGAYTLGWYRQAPRKERELVAAIRGSGGSTYYADSVKGRFTISRDNAKNTVYFQINSLKPDDTAVYYCAKTLTYGFRRYDYWGQGTQVTVSS”, the “polyreactivity (PSR sort gate)” value is “high polyreactivity”. As to “QVQLLESGVGLVQAGGSLRLSCAASGSILYINALGWSRPAPGKARELVAAITYSGGSTYYADSVKGRFTISRDNAKKPVYLQMNSLKPEDTAVYYCAADAVVAGRYDGHAYWGQGTQVTVSS”, the “polyreactivity (PSR sort gate)” value is listed as “low polyreactivity”.

As for “QVQLLESGVGLVQEGGSLRLSCPASGRIFGSKAMGWYRQAPGKERELVAAITRGGSTNYADSVEGRFTISRDNAKNTVYLQMNSLKPEYTAVYYCAVRWYRKYNYWGQGTLVTVSS”, the “polyreactivity (PSR sort gate)” value was “high polyreactivity”. In the case of “QVQLLESRGGLVQAGGSLRLSCAASGRNFGRYTMGWYRQAPGKERELVAAISARGGSTYYADSVKGRFTISRDNAKNTVYLQMNSLKPEDTAVYYCNTVRVHGFPIDRIYDYWGQGTQVTVSS”, the “polyreactivity (PSR sort gate)” value is “high polyreactivity”. For “QVQLLETGGGLVQAGGSLRLSCAASGNTIIRYAMGWYRQAPGTERELVAAISYSGGRSYYADSVKGRFTISRDNAKYTVYLLMNSLKPEDTEVYYCIAASRYGGDYWGQVTQVTVSS”, the “polyreactivity (PSR sort gate)” value was “low polyreactivity”. Regarding “QVQLPESGGGLVQAGGSLRLICAASGYISTFSSEMGWYRQAPGKERELVASIAPGCTTSYADSVKGRFTISRDNAKNTVYLQMNSLKPEDTAVYYCGVDYTVPASFGYWGQGTQVTVSS”, the “polyreactivity (PSR sort gate)” value is given as “high polyreactivity”. For “QVQLQDSGGGLVQAGGSLRLNCATSGTIFVLWYMGCYRQAPGKERELVATINDGANTYYADSVKGRFTINRDNANSTVYLQMNSLQPEDSAVYYCSVYAIIVWGLGYWGQGTQVTVSS”, the “polyreactivity (PSR sort gate)” value is listed as “high polyreactivity”. In the case of “QVQLQDSGSGLVQAGGSLRLSCAASGAIFPAYLMVSYRQAPGKERELVAGISYGSITYCADSVKGRFNISRDNAKNTVYLQMNSLKPEDTAVYYCAVWRPGGDEYYYWGQGTQVTVSS”, the “polyreactivity (PSR sort gate)” value is “low polyreactivity”. On to “QVQLQDTGGGLVQAGGSPRLSCAASDNIFPDSVMCWYRQAPGKERELVATIGFGATTNYADSVKGRFTISRDNAKITVYLQMNSLKPEDSAVYYCAADPLNYEYFCYWGQGTQVTVRS”, for which the “polyreactivity (PSR sort gate)” value is given as “low polyreactivity”. With “QVQLQECGGGLVQAGGSLRLSCAASGHIFDADIMGWYRQAPGKERELVASVTDGGSTNYADSVKGRFTISRDNAKNTVYLQMNSLKPEATAVFYCAAIVYPDILTYFDYDYDYFYWGQGTQVTVGS”, the “polyreactivity (PSR sort gate)” value is “low polyreactivity”. As to “QVQLQECGGGLVQAGGSLRLTCAASGNIFHADIMGWYRQAPGKERELVARVTDGGSTNYADSVKGRLTISRDNAKNTVYLQMNSLKPEETAVYYCAAIVYPVILTYFDYDYDYFYWGQGTQVTVGS”, the “polyreactivity (PSR sort gate)” value was “low polyreactivity”. As to “QVQLQEIGGGLVQAGRSLRLSCAASGSISRLDYMGWYRQASGKERELVAAIDNGSTTYYADSVKGRLTISRDNAKYTVYLQMNSLKPEDTAVYFCAAVRGRGGTHAYWGQGTQVTVSG”, the “polyreactivity (PSR sort gate)” value was “low polyreactivity”. Consider “QVQLQERGGGLVQAGGSLRLGCEASGNISDDGYMGWYRQAPGKEREFVAAIAAGSNTNYADSVKGRFTISRDNAKNTVYLQMNSLKPVETAVFYCAVASYARVQYLYWGQGTQVTVYS”, for which the “polyreactivity (PSR sort gate)” value is listed as “low polyreactivity”. Consider “QVQLQERGGGLVQAGGSLRLSCAASCTIFRFRYMGGHRQAPGKERELVAGINGGTTTYYADSEIGRFTMSRDNAKNTLYLQMNSLKPDDTAVYNCAAGDSRLTYYDYWGQGTQVTVSS”, for which the “polyreactivity (PSR sort gate)” value is “low polyreactivity”.

As for “QVQLQERGGGLVQAGGSLRLSCAASGSIFHYTQMGWYLQAPGKEREFVAAITDGANTNYADSVKGRFTISRDNAKNTVNLQMNSLIPEDTAVFYCATDYGYTDRVTSGFDYWGQGTQVTVSS”, the “polyreactivity (PSR sort gate)” value is on record as “low polyreactivity”.

Values taken from the nanobody polyreactivity screen of Harvey et al. (2022).
